Measurements published in patent publication US20110165265A1, “TRAIL VARIANTS FOR TREATING CANCER” (FUNDACIÓ GENÒMICA (CRG), priority 2007, published 2011).

Target: death receptor 5 (DR5) on the cell surface (human) (UniProt O14763)
Experiment: cell-based or functional assay

For “wild-type TRAIL (recombinant human soluble TRAIL, amino acids 114-281) (from UniProt P50591 114-281) (ligand)”, which TRAIL-mediated death of Colo205 cells in the presence of neutralizing anti-DR5 antibody is on record?
The TRAIL-mediated death of Colo205 cells in the presence of neutralizing anti-DR5 antibody was 3 fold.

What about the incubation time of Colo205 cells with 30 ng/ml ligand needed for a comparable level of pro-caspase-8 processing (Western blot) of the same substance?
The incubation time of Colo205 cells with 30 ng/ml ligand needed for a comparable level of pro-caspase-8 processing (Western blot) was 60 min.
